The source of these data is US9981005B2, “Methods for increasing DISC1 in a subject with schizophrenia or bipolar disorder by an antagonist inhibiting DISC1 binding to FBXW7” (The University Court of the University of Glasgow, priority 2013, dated 2018).

Where no end group is shown, it is not given here. [ ]: non-standard residue; d: D form. pT = C[C@@H](OP(=O)(O)O)[C@H](N)C(=O)O; NMeE = CN[C@@H](CCC(=O)O)C(=O)O; pS = N[C@@H](COP(=O)(O)O)C(=O)O; NMeD = CN[C@@H](CC(=O)O)C(=O)O

The assay deals with FBXW7 (Homo sapiens, UniProt Q969H0). The experiment in a line: Peptides immobilised on membranes screened for the ability to bind FBXW7. Type of assay: binding. An excerpt: Peptides derived from DISC1 and containing the putative phospho-degron motif were immobilised on membranes and screened for the ability to bind FBXW7. […] (SEQ ID NO: 114).
Chain of FBXW7 (Q969H0 whole entry): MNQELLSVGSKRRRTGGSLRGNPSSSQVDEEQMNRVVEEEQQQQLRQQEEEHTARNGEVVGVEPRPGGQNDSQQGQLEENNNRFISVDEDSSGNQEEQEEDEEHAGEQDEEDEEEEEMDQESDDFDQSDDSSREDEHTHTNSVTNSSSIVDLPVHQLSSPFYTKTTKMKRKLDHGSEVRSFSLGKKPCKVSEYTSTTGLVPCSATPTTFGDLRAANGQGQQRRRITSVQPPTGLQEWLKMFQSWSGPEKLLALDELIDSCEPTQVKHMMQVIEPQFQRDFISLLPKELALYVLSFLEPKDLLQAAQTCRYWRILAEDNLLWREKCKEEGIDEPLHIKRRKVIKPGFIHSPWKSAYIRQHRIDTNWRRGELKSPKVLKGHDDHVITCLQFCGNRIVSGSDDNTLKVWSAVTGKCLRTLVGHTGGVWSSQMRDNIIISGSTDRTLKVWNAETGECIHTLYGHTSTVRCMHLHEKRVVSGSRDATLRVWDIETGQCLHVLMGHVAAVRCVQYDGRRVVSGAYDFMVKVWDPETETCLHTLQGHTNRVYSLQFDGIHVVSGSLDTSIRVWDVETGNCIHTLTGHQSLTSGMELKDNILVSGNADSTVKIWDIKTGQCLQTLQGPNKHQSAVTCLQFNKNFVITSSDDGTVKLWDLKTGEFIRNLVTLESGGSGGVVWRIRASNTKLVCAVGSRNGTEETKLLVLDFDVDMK
The 7-mer peptide P-pT-P-P-G-pS-H (SEQ ID NO: 21) was used as the basis for further investigation. L- and D-forms of aspartic acid and glutamic acid (upper and lower case letters respectively) as well as N-methylated versions of each (designated “m”) were incorporated at positions 198 and 202.
With “a-d-p-p-G-mE-H ([dA][dD][dP][dP]G[NMeE]H) [Peptide A163]”, the “binding to FBXW7” value was “retain or have improved binding to FBXW7”.

For “G-A-P-P-G-mE-H (GAPPG[NMeE]H) [Peptide A22]”, the “binding to FBXW7” value is on record as “retain or have improved binding to FBXW7”.

Regarding “P-E-P-P-G-mD-H (PEPPG[NMeD]H) [Peptide 64]”, the “binding to FBXW7” value is “retain or have improved binding to FBXW7”.

As for “P-e-P-P-G-mD-H (P[dE]PPG[NMeD]H) [Peptide A101]”, the “binding to FBXW7” value is “retain or have improved binding to FBXW7”.

In the case of “a-mD-P-P-G-mE-H ([dA][NMeD]PPG[NMeE]H) [Peptide A51]”, the “binding to FBXW7” value is “retain or have improved binding to FBXW7”.

Consider “G-d-p-P-G-mE-H (G[dD][dP]PG[NMeE]H) [Peptide A180]”, for which the “binding to FBXW7” value is reported as “retain or have improved binding to FBXW7”.

Consider “P-pT-P-P-G-pS-H [P-pT-P-P-G-pS-H] (P[pT]PPG[pS]H)”, for which the “binding to FBXW7” value was “retain the ability to bind FBXW7”.

In the case of P-P-G-mE-H (PPG[NMeE]H) [Peptide A189], the “binding to FBXW7” value is reported as “retain or have improved binding to FBXW7”.

Regarding “G-mE-P-p-G-mE-H (G[NMeE]P[dP]G[NMeE]H) [Peptide A76]”, the “binding to FBXW7” value is on record as “retain or have improved binding to FBXW7”.

As for “G-d-p-p-G-mE-H (G[dD][dP][dP]G[NMeE]H) [Peptide A172]”, the “binding to FBXW7” value is “retain or have improved binding to FBXW7”.

Turning to “e-P-P-G-mE-H ([dE]PPG[NMeE]H) [Peptide A26]”, the “binding to FBXW7” value is listed as “retain or have improved binding to FBXW7”.

Take “a-d-P-P-a-mE-h ([dA][dD]PP[dA][NMeE][dH]) [Peptide A165]”: the “binding to FBXW7” value was “retain or have improved binding to FBXW7”.

As to “P-pT-P-P-G-pS-H [A119] (P[pT]PPG[pS]H) [Peptide A119]”, the “binding to FBXW7” value is “retain or have improved binding to FBXW7”.

On to “d-P-P-G-mE-H ([dD]PPG[NMeE]H) [Peptide A86]”, for which the “binding to FBXW7” value was “retain or have improved binding to FBXW7”.

“a-d-p-p-a-mE-h ([dA][dD][dP][dP][dA][NMeE][dH]) [Peptide A169]”: the “binding to FBXW7” value is on record as “retain or have improved binding to FBXW7”.

In the case of “P-d-p-P-G-mE-H (P[dD][dP]PG[NMeE]H) [Peptide A97]”, the “binding to FBXW7” value was “retain or have improved binding to FBXW7”.

Consider “G-mD-P-P-G-mE (G[NMeD]PPG[NMeE]) [Peptide A45]”, for which the “binding to FBXW7” value was “retain or have improved binding to FBXW7”.

Take “G-d-P-p-a-mE-H (G[dD]P[dP][dA][NMeE]H) [Peptide A170]”: the “binding to FBXW7” value is listed as “retain or have improved binding to FBXW7”.

Turning to “a-d-P-p-G-mE-H ([dA][dD]P[dP]G[NMeE]H) [Peptide A161]”, the “binding to FBXW7” value was “retain or have improved binding to FBXW7”.

Take “G-d-P-P-a-mE-k (G[dD]PP[dA][NMeE][dK]) [Peptide A196]”: the “binding to FBXW7” value is “retain or have improved binding to FBXW7”.

Consider “P-e-P-P-G-mE (P[dE]PPG[NMeE]) [Peptide A124]”, for which the “binding to FBXW7” value is listed as “retain or have improved binding to FBXW7”.

As to “G-d-p-p-G-mE-h (G[dD][dP][dP]G[NMeE][dH]) [Peptide A174]”, the “binding to FBXW7” value is “retain or have improved binding to FBXW7”.

With “P-e-P-P-Q-mE-H (P[dE]PPQ[NMeE]H) [Peptide A131]”, the “binding to FBXW7” value is “retain or have improved binding to FBXW7”.

Regarding P-E-P-P-G-d-H (PEPPG[dD]H) [Peptide 16], the “binding to FBXW7” value is “retain or have improved binding to FBXW7”.

As for “G-d-p-p-a-mE-H (G[dD][dP][dP][dA][NMeE]H) [Peptide A173]”, the “binding to FBXW7” value was “retain or have improved binding to FBXW7”.

For the substance P-P-pT-P-P-G-pS-H (PP[pT]PPG[pS]H), the “binding to FBXW7” value is given as “retain the ability to bind FBXW7”.

Take “P-pT-P-P-G-pS-H [A100] (P[pT]PPG[pS]H) [Peptide A100]”: the “binding to FBXW7” value is given as “retain or have improved binding to FBXW7”.
